The values below come from article PMC7804450, “Structural insights into TSC complex assembly and GAP activity on Rheb” (Nature Communications, 2021).

By stoichiometry N is commonly meant the number of molecules, sites or subunits per partner or assembly.

B1: tuberous sclerosis complex 1 (TSC1), human, subunit of the purified TSC complex (natural protein, UniProt Q92574 1-1164, looked up)
chain: MAQQANVGELLAMLDSPMLGVRDDVTAVFKENLNSDRGPMLVNTLVDYYLETSSQPALHILTTLQEPHDKHLLDRINEYVGKAATRLSILSLLGHVIRLQPSWKHKLSQAPLLPSLLKCLKMDTDVVVLTTGVLVLITMLPMIPQSGKQHLLDFFDIFGRLSSWCLKKPGHVAEVYLVHLHASVYALFHRLYGMYPCNFVSFLRSHYSMKENLETFEEVVKPMMEHVRIHPELVTGSKDHELDPRRWKRLETHDVVIECAKISLDPTEASYEDGYSVSHQISARFPHRSADVTTSPYADTQNSYGCATSTPYSTSRLMLLNMPGQLPQTLSSPSTRLITEPPQATLWSPSMVCGMTTPPTSPGNVPPDLSHPYSKVFGTTAGGKGTPLGTPATSPPPAPLCHSDDYVHISLPQATVTPPRKEERMDSARPCLHRQHHLLNDRGSEEPPGSKGSVTLSDLPGFLGDLASEEDSIEKDKEEAAISRELSEITTAEAEPVVPRGGFDSPFYRDSLPGSQRKTHSAASSSQGASVNPEPLHSSLDKLGPDTPKQAFTPIDLPCGSADESPAGDRECQTSLETSIFTPSPCKIPPPTRVGFGSGQPPPYDHLFEVALPKTAHHFVIRKTEELLKKAKGNTEEDGVPSTSPMEVLDRLIQQGADAHSKELNKLPLPSKSVDWTHFGGSPPSDEIRTLRDQLLLLHNQLLYERFKRQQHALRNRRLLRKVIKAAALEEHNAAMKDQLKLQEKDIQMWKVSLQKEQARYNQLQEQRDTMVTKLHSQIRQLQHDREEFYNQSQELQTKLEDCRNMIAELRIELKKANNKVCHTELLLSQVSQKLSNSESVQQQMEFLNRQLLVLGEVNELYLEQLQNKHSDTTKEVEMMKAAYRKELEKNRSHVLQQTQRLDTSQKRILELESHLAKKDHLLLEQKKYLEDVKLQARGQLQAAESRYEAQKRITQVFELEILDLYGRLEKDGLLKKLEEEKAEAAEAAEERLDCCNDGCSDSMVGHNEEASGHNGETKTPRPSSARGSSGSRGGGGSSSSSSELSTPEKPPHQRAGPFSSRWETTMGEASASIPTTVGSLPSSKSFLGMKARELFRNKSESQCDEDGMTSSLSESLKTELGKDLGVEAKIPLNLDGPHPSPPTPDSVGQLHIMDYNETHHEHS
notes: TSC1 (hamartin), human; ORF sub-cloned into a modified pCAG vector; Two copies (TSC1a, TSC1b) stand in the TSC complex (2:2:1); The sample for cryo-EM was cross-linked with glutaraldehyde (Grafix); also called TSC1a; TSC1b
B2: tuberous sclerosis complex 2 (TSC2), human, subunit of the purified TSC complex (natural protein)
chain: not shown
notes: TSC2 (tuberin), human; ORF sub-cloned into a modified pCAG vector; residues 127-936, 1015-1082, 1182-1245, 1494-1732 traced; Two copies (TSC2a, TSC2b) stand in the TSC complex (2:2:1); The sample for cryo-EM was cross-linked with glutaraldehyde (Grafix); also called TSC2a; TSC2b
B3: Tre2-Bub2-Cdc16-1 domain family member 7 (TBC1D7), human, subunit of the purified TSC complex (natural protein, UniProt Q9P0N9 1-293, looked up)
chain: MTEDSQRNFRSVYYEKVGFRGVEEKKSLEILLKDDRLDTEKLCTFSQRFPLPSMYRALVWKVLLGILPPHHESHAKVMMYRKEQYLDVLHALKVVRFVSDATPQAEVYLRMYQLESGKLPRSPSFPLEPDDEVFLAIAKAMEEMVEDSVDCYWITRRFVNQLNTKYRDSLPQLPKAFEQYLNLEDGRLLTHLRMCSAAPKLPYDLWFKRCFAGCLPESSLQRVWDKVVSGSCKILVFVAVEILLTFKIKVMALNSAEKITKFLENIPQDSSDAIVSKAIDLWHKHCGTPVHSS
notes: TBC1D7, human; ORF sub-cloned into a modified pCAG vector; residues 21-287 traced; One copy stands in the TSC complex (2:2:1); The sample for cryo-EM was cross-linked with glutaraldehyde (Grafix)

What all share (assay): cryo-EM structure; human TSC complex (TSC1, TSC2, TBC1D7) co-expressed in Expi293F, purified, cross-linked by Grafix (glutaraldehyde); single particle reconstruction, 4.4 Å overall, core 3.6 Å, wings 3.9 and 4.1 Å
The target in series [1] is B2. To be noted: both partners purified.
Series [2] concerns the molecule itself.
Series [3] has as its target B1. To be noted: both partners purified.

On to B1, for which the binding result in series [1] is “binds”.
As for B2, in series [2], the “stoichiometry N” value came out at 2.
With B3, the binding result in series [3] is listed as “binds”.
